In the supplement of paper PMC10567573:

B1: SOAT1 (parent)
chain: KSAAMLAVFAVSAVVHEYALAVCL
B2: FBXO3 (parent)
chain: GGFPIIRDQIFRYVHDPECVATTG

Variants of: B1
Experiment: protein stability index of a GFP-peptide fusion (GPS, HEK-293T) (PSI 1-6); higher = more stable
Conditions: c terminus: a fixed tail appended
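Note: lentivirally expressed fusions sorted by FACS into six bins by GFP to DsRed ratio, PSI derived from sequencing read proportions per bin multiplied by bin number.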

Protein stability index: each site, then its substitutions
K1: T 4.59 | H 2.28 | S 5.65 | Q 3.7 | N 1.73 | D 4.34 | C 1.84 | E 3.54 | G 4.12 | A 3.09 | V 1.84 | R 3.37 | W 3.4 | F 2.89 | M 2.64
S2: E 3.57 | C 2.54

Variants of: B2
Experiment: as above
Conditions: c terminus: a fixed tail appended

Protein stability index of substitutions, site by site:
D8: S 1.61 | T 1.24 | Q 1.7 | A 2.14 | I 3.17 | E 1.52 | V 2.54 | N 1.54 | Y 3.32 | R 3.49 | P 1.27 | K 2.39
R12: N 3.01 | H 2.69 | F 1.92 | I 2.63 | E 3.39 | K 2.67 | G 3.12 | V 1.22 | D 3.21 | S 2.89 | Q 2.79 | T 2.21 | C 1.75 | W 1.58 | M 1.35 | P 2.82 | Y 1.64 | A 2.3 | L 1.64
G24: N 2.31 | H 2.25 | P 1.82 | F 1.93 | R 2.22 | K 1.96 | A 1.83 | W 1.61 | S 1.81 | T 2.49 | E 2.22 | D 2.22 | Y 1.99 | L 1.96 | M 1.33 | V 1.69 | Q 2.78 | I 1.5 | C 1.7
Y13: W 2.18 | A 3.44 | Q 3.65 | L 2.51 | I 2.39 | M 2.88 | T 3.34 | C 2.32 | R 3.22 | F 1.75 | N 3.58 | K 2.79 | G 3.18 | P 3.84 | D 3.85 | E 3.96 | S 3.62 | V 2.8 | H 2.28
H15: W 1.85 | I 1.62 | K 2.05 | G 1.78 | R 1.68 | A 1.95 | M 1.49 | E 2.85 | N 1.84 | C 1.97 | T 2.28 | S 1.5 | V 2.58 | L 1.94 | F 1.85 | P 2.27 | Y 1.74 | D 2.41 | Q 2.02
C19: A 1.6 | D 2.49 | W 2.15 | H 1.57 | Y 1.81 | M 2.31 | G 1.73 | L 1.72 | K 1.78 | E 2.47 | S 1.9 | P 1.94 | Q 1.94 | T 2.09 | I 1.55 | F 1.57 | R 1.79 | V 2.08 | N 1.74
E18: Q 1.28 | L 1.58 | W 1.38 | C 2.04 | K 2.38 | N 1.8 | A 2.61 | R 1.69 | S 1.57 | F 1.88 | P 2.1 | G 1.71 | V 1.7 | Y 2.52 | M 1.79 | D 1.68 | I 1.92 | T 1.98 | H 1.99
V14: P 3.32 | Q 3.11 | F 1.92 | N 2.92 | G 2.78 | C 1.93 | D 3.78 | M 2.42 | R 2.94 | L 2.28 | E 3.51 | H 2.28 | K 2.83 | T 2.5 | S 2.74 | Y 2.9 | A 2.12 | W 1.94 | I 2.57
A21: K 1.62 | Y 2.49 | N 1.5 | L 1.45 | Q 2.05 | R 1.82 | F 1.64 | P 1.86 | C 1.39 | D 1.06 | S 1.93 | H 2.77 | E 1.55 | V 1.36 | T 1.69 | I 1.5 | G 2 | W 1.7 | M 2.42
F11: I 2.45 | W 1.9 | L 3.02 | Y 2.76 | K 2.85 | P 3.38 | C 2.92 | T 3.35 | V 3.18 | R 2.89 | Q 3.1 | S 3.45 | E 3.58 | D 3.94 | N 3.67 | M 2.78 | H 4.01 | A 3.59 | G 3.48
V20: W 1.78 | C 2.84 | T 1.68 | Y 1.9 | S 2.32 | E 2.22 | G 2.08 | P 2.23 | M 1.79 | L 1.81 | K 1.27 | N 2.49 | A 2.24 | H 2.01 | R 1.63 | Q 2.04 | I 2.19 | D 1.45 | F 1.8
T22: I 2.26 | P 2.23 | Y 1.88 | L 1.83 | K 1.64 | H 1.92 | A 1.74 | N 2.61 | G 1.66 | C 1.72 | D 2.25 | S 1.63 | V 1.67 | E 2.28 | W 1.84 | Q 1.76 | M 1.53 | F 1.67 | R 2.56
Q9: H 1.64 | D 2.83 | I 1.9 | L 2.08 | S 1.8 | Y 2.13 | C 1.87 | E 2.09 | K 1.75 | A 2.13 | V 2.95 | R 2.18 | N 2.29 | G 1.75 | F 2.43 | P 2.65 | T 1.58 | W 2.29
T23: D 1.66 | E 2.09 | N 2.13 | F 2.25 | H 1.89 | L 1.57 | C 1.91 | M 1.73 | G 1.12 | I 1.89 | S 1.59 | A 1.8 | P 1.71 | V 1.61 | R 1.64 | Q 1.96 | K 2.03 | Y 1.61
P17: C 1.83 | W 2.01 | Y 1.64 | T 2.42 | E 2.34 | I 1.43 | V 1.46 | G 2.11 | F 2.01 | L 1.81 | K 2.47 | S 2.93 | A 1.84 | N 2.61 | M 2.1 | R 1.49 | D 2.91 | H 1.83 | Q 1.97
D16: W 2.72 | V 2.05 | Q 2.25 | T 2.37 | L 1.75 | I 2.06 | C 1.94 | S 2.2 | G 1.93 | Y 2.26 | P 2.47 | M 1.88 | F 1.4 | A 1.86 | R 1.5 | K 2.3 | H 1.46 | N 1.8 | E 2.56
I10: F 2.13 | G 2.04 | T 2.54 | D 3.6 | K 3.07 | M 2.44 | Q 2.75 | Y 2.57 | A 2.38 | L 2.17 | N 3.3 | W 1.74 | S 3.22 | H 3.27 | P 2.6 | V 2.36 | E 3.66 | R 2.17 | C 2.19
R7: Y 1.87 | V 1.73 | W 2.21
